According to PMC4871701, “Release of GTP Exchange Factor Mediated Down-Regulation of Abscisic Acid Signal Transduction through ABA-Induced Rapid Degradation of RopGEFs” (PLoS Biology, 2016):

T1: GST-GEF1 (Arabidopsis thaliana, UniProt Q93ZY2 1-548)
T1 construct: RopGEF1 (GEF1), Arabidopsis thaliana; also called GST-tagged GEF1; GST-RopGEF1; source: E. coli Rosetta (DE3) pLysS, purified (Glutathione Sepharose); not shown: GST, N-terminal, kept
T1 sequence (looked up): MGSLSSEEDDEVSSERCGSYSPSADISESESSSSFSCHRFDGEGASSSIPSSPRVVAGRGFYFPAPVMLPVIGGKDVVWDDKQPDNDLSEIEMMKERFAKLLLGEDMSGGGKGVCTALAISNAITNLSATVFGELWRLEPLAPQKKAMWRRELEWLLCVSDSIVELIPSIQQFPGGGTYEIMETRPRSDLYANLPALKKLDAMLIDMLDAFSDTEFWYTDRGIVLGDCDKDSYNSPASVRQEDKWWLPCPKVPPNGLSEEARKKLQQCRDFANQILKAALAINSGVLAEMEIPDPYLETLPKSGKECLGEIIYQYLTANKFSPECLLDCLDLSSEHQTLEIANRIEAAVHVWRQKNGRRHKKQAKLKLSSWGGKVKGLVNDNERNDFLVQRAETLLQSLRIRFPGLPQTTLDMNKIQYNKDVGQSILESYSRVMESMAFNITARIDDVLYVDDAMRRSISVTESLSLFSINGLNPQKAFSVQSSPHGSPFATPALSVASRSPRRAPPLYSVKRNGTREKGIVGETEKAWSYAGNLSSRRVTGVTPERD

B1: StrepII-ABI1 (enzyme, Arabidopsis thaliana, UniProt P49597 1-434, looked up)
chain: MEEVSPAIAGPFRPFSETQMDFTGIRLGKGYCNNQYSNQDSENGDLMVSLPETSSCSVSGSHGSESRKVLISRINSPNLNMKESAAADIVVVDISAGDEINGSDITSEKKMISRTESRSLFEFKSVPLYGFTSICGRRPEMEDAVSTIPRFLQSSSGSMLDGRFDPQSAAHFFGVYDGHGGSQVANYCRERMHLALAEEIAKEKPMLCDGDTWLEKWKKALFNSFLRVDSEIESVAPETVGSTSVVAVVFPSHIFVANCGDSRAVLCRGKTALPLSVDHKPDREDEAARIEAAGGKVIQWNGARVFGVLAMSRSIGDRYLKPSIIPDPEVTAVKRVKEDDCLILASDGVWDVMTDEEACEMARKRILLWHKKNAVAGDASLLADERRKEGKDPAAMSAAEYLSKLAIQRGSKDNISVVVVDLKPRRKLKSKPLN
notes: ABI1, type 2C protein phosphatase, Arabidopsis thaliana; also called Strep-II tagged ABI1; source: E. coli Rosetta (DE3) pLysS, purified (Strep-Tactin resin); not shown: Strep-II, N-terminal, kept
B2: StrepII-ROP11 (natural protein)
chain: not shown
notes: ROP11, ROP/RAC small GTPase, Arabidopsis thaliana; also called Strep-II tagged ROP11; source: E. coli Rosetta (DE3) pLysS, purified (Strep-Tactin resin); not shown: Strep-II, N-terminal, kept

Biological target: T1, GST-GEF1
Assay: pull-down; GST-GEF1 on Glutathione Sepharose beads as bait, StrepII-tagged input proteins; bound proteins detected by blot for Strep-II
Conditions: both partners purified

Binder | binding result
B1 | binds
B2 | binds
